Reference: patent publication US20220017635A1 (Kyowa Kirin, published 2022)

How the values were obtained:
human EGFR on cells [1] = target: T1, human EGFR on cells (human, UniProt P00533 25-1210); test: flow cytometry on OE21 cells; x axis PE-A [E]
T1 construct: also called membrane-associated EGFR on OE21 cells

human EGFR-FLAG-Fc [2] = target: T2, human EGFR-FLAG-Fc (human, UniProt P00533 25-638); test: phage ELISA on immobilized EGFR-Fc (Example 5)
T2 construct: also called human EGFR-Fc

human EGFR on cells [3] = target: T1, human EGFR on cells; test: flow cytometry on OE21 cells; x axis PE-A [D]
monkey EGFR-FLAG-Fc = target: T3, monkey EGFR-FLAG-Fc (monkey, UniProt P55245 25-638); test: phage ELISA (scFv) on immobilized monkey EGFR-Fc
T3 construct: also called monkey EGFR-Fc; not shown: FLAG-Fc added to the C terminus

human EGFR on cells [4] = target: T1, human EGFR on cells; test: flow cytometry on OE21 cells; x axis Alexa Fluor 488-A [B]
human EGFR-FLAG-Fc [5] = target: T2, human EGFR-FLAG-Fc; test: phage ELISA (scFv) on immobilized human EGFR-Fc
human EGFR on cells [6] = target: T1, human EGFR on cells; test: flow cytometry on OE21 cells; x axis Alexa Fluor 488-A [A]
human EGFR on cells [7] = target: T1, human EGFR on cells; test: flow cytometry on OE21 cells; x axis Alexa Fluor 488-A [C]
chimeric TfR A03 = target: T4, chimeric TfR A03 (human/mouse chimera, UniProt P02786 89-760); test: ELISA on immobilized chimeric TfR; grade = binding relative to His-huTfR (++ 0.5 or more, + 0.2 to less than 0.5)
T4 construct: also called D245E-K261E

chimeric TfR A14 = target: T5, chimeric TfR A14 (human/mouse chimera, UniProt P02786 89-760); test: as above
T5 construct: also called D204Q-K205S-E369Q

chimeric TfR A05 = target: T6, chimeric TfR A05 (human/mouse chimera, UniProt P02786 89-760); test: as above
T6 construct: also called P249S-L274F

[8] = target: T7, huTfR with mouse protease-like domain (human/mouse chimera); test: as above
T7 construct: His tag added; also called chimeric protein of human TfR extracellular domain with mouse protease-like domain
T7 chain: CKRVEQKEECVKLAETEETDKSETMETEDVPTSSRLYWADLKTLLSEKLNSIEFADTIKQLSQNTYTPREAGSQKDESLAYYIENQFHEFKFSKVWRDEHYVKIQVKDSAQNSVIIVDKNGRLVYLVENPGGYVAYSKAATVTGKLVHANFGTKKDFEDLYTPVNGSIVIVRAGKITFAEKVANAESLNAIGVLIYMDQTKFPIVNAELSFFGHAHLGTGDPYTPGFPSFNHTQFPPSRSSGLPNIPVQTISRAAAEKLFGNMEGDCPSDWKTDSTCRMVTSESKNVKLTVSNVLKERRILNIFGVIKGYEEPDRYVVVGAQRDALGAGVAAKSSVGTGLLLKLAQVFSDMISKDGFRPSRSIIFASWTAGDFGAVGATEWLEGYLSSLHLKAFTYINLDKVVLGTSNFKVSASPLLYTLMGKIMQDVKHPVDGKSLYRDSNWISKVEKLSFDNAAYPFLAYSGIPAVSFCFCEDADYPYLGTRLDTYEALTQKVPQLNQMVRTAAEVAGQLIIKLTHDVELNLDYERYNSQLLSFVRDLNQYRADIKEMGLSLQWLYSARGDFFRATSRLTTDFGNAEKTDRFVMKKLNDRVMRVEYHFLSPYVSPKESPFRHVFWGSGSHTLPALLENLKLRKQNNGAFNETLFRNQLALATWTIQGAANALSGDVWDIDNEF

chimeric TfR A04 = target: T8, chimeric TfR A04 (human/mouse chimera, UniProt P02786 89-760); test: as above
T8 construct: also called D245E-K261E-D356R

[9] = target: T9, huTfR with mouse apical domain (human/mouse chimera, UniProt P02786 89-760); test: ELISA on immobilized chimeric TfR
T9 construct: His tag added; also called chimeric protein of human TfR extracellular domain with mouse apical domain
T9 chain: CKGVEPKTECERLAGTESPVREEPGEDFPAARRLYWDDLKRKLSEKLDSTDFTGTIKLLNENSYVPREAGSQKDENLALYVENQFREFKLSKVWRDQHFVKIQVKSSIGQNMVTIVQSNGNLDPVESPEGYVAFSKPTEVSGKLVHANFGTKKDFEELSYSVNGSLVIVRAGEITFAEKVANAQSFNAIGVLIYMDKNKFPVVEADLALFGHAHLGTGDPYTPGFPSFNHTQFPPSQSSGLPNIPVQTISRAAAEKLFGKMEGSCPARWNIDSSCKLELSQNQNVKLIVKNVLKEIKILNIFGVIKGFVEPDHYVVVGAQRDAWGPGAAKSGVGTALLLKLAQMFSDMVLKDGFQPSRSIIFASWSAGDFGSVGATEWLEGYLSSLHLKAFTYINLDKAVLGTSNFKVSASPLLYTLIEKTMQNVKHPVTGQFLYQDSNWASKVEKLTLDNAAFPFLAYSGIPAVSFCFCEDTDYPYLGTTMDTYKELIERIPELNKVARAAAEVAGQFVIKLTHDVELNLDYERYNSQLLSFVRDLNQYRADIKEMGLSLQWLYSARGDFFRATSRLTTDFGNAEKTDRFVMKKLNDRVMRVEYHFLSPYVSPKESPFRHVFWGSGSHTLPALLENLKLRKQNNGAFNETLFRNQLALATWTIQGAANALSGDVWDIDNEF

chimeric TfR A07 = target: T10, chimeric TfR A07 (human/mouse chimera, UniProt P02786 89-760); test: ELISA on immobilized chimeric TfR
T10 construct: also called M365L-V366E-E369Q

chimeric TfR A02 = target: T11, chimeric TfR A02 (human/mouse chimera, UniProt P02786 89-760); test: ELISA on immobilized chimeric TfR
T11 construct: also called D352S-S355A-D356R-K358N
T11 chain: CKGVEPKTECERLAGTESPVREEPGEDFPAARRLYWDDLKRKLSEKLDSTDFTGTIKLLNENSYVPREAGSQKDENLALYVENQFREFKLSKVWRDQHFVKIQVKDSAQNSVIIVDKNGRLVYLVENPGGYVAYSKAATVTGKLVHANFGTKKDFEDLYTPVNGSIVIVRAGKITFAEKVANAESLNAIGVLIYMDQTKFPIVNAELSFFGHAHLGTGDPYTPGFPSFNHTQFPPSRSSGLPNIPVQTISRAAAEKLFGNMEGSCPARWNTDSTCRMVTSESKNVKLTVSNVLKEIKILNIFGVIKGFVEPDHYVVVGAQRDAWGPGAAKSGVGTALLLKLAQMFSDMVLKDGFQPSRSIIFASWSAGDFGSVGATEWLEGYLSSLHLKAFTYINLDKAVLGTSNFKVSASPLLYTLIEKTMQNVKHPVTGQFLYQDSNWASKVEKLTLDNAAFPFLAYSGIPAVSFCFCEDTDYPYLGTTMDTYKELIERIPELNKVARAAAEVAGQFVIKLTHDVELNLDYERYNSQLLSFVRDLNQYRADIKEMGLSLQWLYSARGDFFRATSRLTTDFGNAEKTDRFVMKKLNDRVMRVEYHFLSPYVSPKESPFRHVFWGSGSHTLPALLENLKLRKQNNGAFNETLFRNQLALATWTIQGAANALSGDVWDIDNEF

monkey TfR on CHO cells = target: T12, monkey TfR on CHO cells (monkey); test: flow cytometry of monoclonal phage (scFv) on monkey TfR/CHO cells
T12 construct: also called monkey TfR/CHO cells
T12 chain: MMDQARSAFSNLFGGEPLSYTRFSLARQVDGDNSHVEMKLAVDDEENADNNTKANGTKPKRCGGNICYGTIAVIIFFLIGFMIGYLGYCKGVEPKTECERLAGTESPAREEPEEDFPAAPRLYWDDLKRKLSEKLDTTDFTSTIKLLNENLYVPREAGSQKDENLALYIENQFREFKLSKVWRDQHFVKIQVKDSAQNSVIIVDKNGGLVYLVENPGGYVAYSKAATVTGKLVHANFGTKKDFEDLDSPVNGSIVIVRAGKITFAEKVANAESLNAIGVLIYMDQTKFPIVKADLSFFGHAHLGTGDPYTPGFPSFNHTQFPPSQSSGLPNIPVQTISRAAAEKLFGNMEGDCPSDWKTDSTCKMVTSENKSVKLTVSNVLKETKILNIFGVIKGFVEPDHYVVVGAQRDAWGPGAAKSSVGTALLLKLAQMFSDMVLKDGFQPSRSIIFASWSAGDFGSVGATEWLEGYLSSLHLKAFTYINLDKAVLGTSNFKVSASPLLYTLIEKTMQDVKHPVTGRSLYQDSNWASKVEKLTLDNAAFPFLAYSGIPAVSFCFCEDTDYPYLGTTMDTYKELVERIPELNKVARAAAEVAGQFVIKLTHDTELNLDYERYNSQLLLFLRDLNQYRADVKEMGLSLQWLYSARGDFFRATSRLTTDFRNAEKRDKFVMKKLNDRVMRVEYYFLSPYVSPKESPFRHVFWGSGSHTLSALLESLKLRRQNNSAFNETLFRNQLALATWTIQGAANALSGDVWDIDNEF

mouse TfR on CHO cells = target: T13, mouse TfR on CHO cells (mouse, UniProt Q62351 1-763); test: flow cytometry on mouse TfR/CHO cells
T13 construct: also called mouse TfR/CHO

B1: KME09 (antibody, V domains shown)
VH: QVQLVQSGAEVKKPGSSVKVSCKASGGTFSSFAWGWVRQAPGQGLEWMGEIRPGFGTEIYAQNFQDRVTFITDEATSTTYMELSSLKSEDTAVYYCARGLLRSGYIDNPCDIWGQGTMVTVSS
VL: DIQMTQSPSSLSASVGDRVTITCRASQGISSWLAWYQQKPEKAPKSLIYAASSLQSGVPSRFSGSGSGTDFTLTISSLQPEDFATYFCQQYYNYPYTFGQGTKLEIK
notes: IgG4PE or IgG4PE R409K; also called anti-EGFR antibody KME09
**Q.** Does B1 bind (human EGFR on cells [1])?
**A.** binds

B2: KME11 (antibody, V domains shown)
VH: QVQLVQSGAEVKKPGSSVKVSCKASGGTLSTYGITWVRQAPGQGFAWMGEIIPSLGIVNYAQKFQGRVTITADESTSTVYMELSSVTYEDTAVYYCAGDELSEGHSEYYHGMDVWGQGTTVTVSS
VL: B1 VL
notes: IgG4PE or IgG4PE R409K; also called anti-EGFR antibody KME11; KME1l
**Q.** Does B2 bind (human EGFR-FLAG-Fc [2])?
**A.** binds

B3: KME07 (antibody, V domains shown)
VH: QVQLVQSGAEVKKPGSSVKVSCKASGGTFSSFAFGWVRQAPGQGLEWMGEVRPGFGTEILTQNFQDRVTITADESTSTTYMELRSLKSEDTAVYYCARGLLRGGYIENPFEIWGQGTLVTVSS
VL: B1 VL
notes: IgG4PE or IgG4PE R409K; also called anti-EGFR antibody KME07
**Q.** Does B3 bind (human EGFR on cells [3])?
**A.** binds

B4: E12 (antibody, V domains shown)
VH: QVQLVESGGGLVQPGGSLRLSCAASRFTFSAYAMGWVRQAPGKGLEWVSIIDSGGVYTYYADSMKGRFTISRDNSKNTLYLQMNSLRAEDTAVYYCARDHYGVVWGLGDYWGQGTLVTVSS
VL: not shown
notes: also called anti-EGFR antibody E12; Clone E12
**Q.** Does B4 bind (monkey EGFR-FLAG-Fc)?
**A.** binds

**Q.** Does B4 bind (human EGFR on cells [4])?
**A.** binds

**Q.** Does B4 bind (human EGFR-FLAG-Fc [5])?
**A.** binds

B5: E08 (antibody, V domains shown)
VH: EVQLVESGGGLVQPGGSLRLSCAASGFSFNNNAMNWVRQAPGKGLEWVSGIRADGGTTYYADSVKGRFTISRDNSKNTLYLQMNSLRAEDTAVYFCGKTPDWEIFYYAMDAWGQGTTVTVSS
VL: not shown
notes: also called anti-EGFR antibody E08; Clone E08
**Q.** What does the source list for B5?
**A.** binding result (monkey EGFR-FLAG-Fc): binds; binding result (human EGFR on cells [6]): binds; binding result (human EGFR-FLAG-Fc [5]): binds

B6: E17 (antibody, V domains shown)
VH: QVQLQQWGAGLLKPSETLSLTCALYSGSFSAQDWSWIRQSPEKGLEWIGEIWQGGKTNYNPSLKSRVSISRDNSKNQLSLQLSSVTAADTAVYYCARVDWSYRVFEIWGQGTMVTVSS
VL: not shown
notes: also called anti-EGFR antibody E17
**Q.** Does B6 bind (monkey EGFR-FLAG-Fc)?
**A.** binds

**Q.** Does B6 bind (human EGFR-FLAG-Fc [5])?
**A.** binds

**Q.** Does B6 bind (human EGFR on cells [7])?
**A.** binds

B7: cyno292 (antibody, V domains shown)
VH: QVQLVQSGGGLVKPGGSLRISCTTSGFPFDGYTMTWVRQAPGKGLEWVSSISNGGSTIFVSDSVRGRFTISRDNAKNSLYLQMNNVGAEDTAVYYCARARDAYGWTLPSDIWGQGTMVTVSS
VL: not shown
notes: also called anti-TfR antibody cyno292
**Q.** With B7 as the binder, how does the “ratio of ELISA binding activity (A450-A570) to chimeric TfR over that to His-huTfR” value (shortened to “ratio of ELISA binding activity”) (chimeric TfR A03) read?
**A.** ≥ 0.5 ratio

**Q.** What about the “ratio of ELISA binding activity” value (chimeric TfR A14) of the same binder?
**A.** ≥ 0.5 ratio

**Q.** And the “ratio of ELISA binding activity” value (chimeric TfR A05)?
**A.** ≥ 0.5 ratio

**Q.** And the “ratio of ELISA binding activity” value [8]?
**A.** ≥ 0.5 ratio

**Q.** And the “ratio of ELISA binding activity” value (chimeric TfR A04)?
**A.** ≥ 0.5 ratio

**Q.** What about the “ratio of ELISA binding activity” value [9] of the same binder?
**A.** < 0.2 ratio

**Q.** And the “ratio of ELISA binding activity” value (chimeric TfR A07)?
**A.** < 0.2 ratio

**Q.** What about the “ratio of ELISA binding activity” value (chimeric TfR A02) of the same binder?
**A.** < 0.2 ratio

**Q.** Does B7 bind (monkey TfR on CHO cells)?
**A.** binds

**Q.** Does B7 bind (mouse TfR on CHO cells)?
**A.** no binding
